Test results as given in patent US20040265915A1, “Method to identify regulators of cellular activation using Bcl10” (priority 2003, published 2004).

Test system: Bcl10-YFP POLKADOTS formation
Test: Bcl10-YFP POLKADOTS formation in antigen-stimulated D10 T cells, fluorescence microscopy
Type: cell-based, murine
Conditions: D10 T cells with conalbumin-loaded CH12 B cells (100 μg/ml), fixed after 20 min, >200 T cells counted, FIG. 4
Method: D10-IL2 (henceforth referred to as D10) is an IL-2 dependent subclone of the CD4^+ T cell clone D10 (16), maintained as described (17). Primary T cell blasts were prepared by stimulation of spleen and lymph node cells with 100 μg/ml plate-bound anti-TCRP for 48 hr, with IL-2 added for the final 24 hr of stimulation. CH12H-2^k B cells and CHb H-2^b B cells (18) were maintained as described previously (17).
Murine PKCθ was fused to a C-terminal linker (GRVELGR; SEQ ID NO:7) followed by GFP or CFP (19), modified by mutations that improve folding at 37° C. (20). Two I.M.A.G.E. expressed sequence tag (EST) clones encoding murine Bcl10 were purchased (2123397 and 3026026; ResGen). Clone 3026026 was used for PCR amplification of Bc 10, adding the C-terminal linker GR, which was then fused to the previously described modified YFP gene (17). […]
The inventors next examined whether formation of Bcl10 POLKADOTS is PKC-dependent (FIG. 4 and FIG. 5). […] Cells were fixed after 20 minutes and examined by fluorescence microscopy. For each group, >200 T cells were counted, and percentages with and without POLKADOTS were determined.
CH12 B cells that had been pre-incubated with no antigen or with 250 μg/ml conalbumin protein were then added. Cells were fixed after 30 min and examined by fluorescence microscopy. […]

B1: conalbumin: conalbumin protein, specific antigen loaded on CH12 B cells to stimulate D10 T cells (protein, UniProt P02789 20-705, looked up)
Ovotransferrin: APPKSVIRWCTISSPEEKKCNNLRDLTQQERISLTCVQKATYLDCIKAIANNEADAISLDGGQAFEAGLAPYKLKPIAAEVYEHTEGSTTSYYAVAVVKKGTEFTVNDLQGKTSCHTGLGRSAGWNIPIGTLLHRGAIEWEGIESGSVEQAVAKFFSASCVPGATIEQKLCRQCKGDPKTKCARNAPYSGYSGAFHCLKDGKGDVAFVKHTTVNENAPDQKDEYELLCLDGSRQPVDNYKTCNWARVAAHAVVARDDNKVEDIWSFLSKAQSDFGVDTKSDFHLFGPPGKKDPVLKDLLFKDSAIMLKRVPSLMDSQLYLGFEYYSAIQSMRKDQLTPSPRENRIQWCAVGKDEKSKCDRWSVVSNGDVECTVVDETKDCIIKIMKGEADAVALDGGLVYTAGVCGLVPVMAERYDDESQCSKTDERPASYFAVAVARKDSNVNWNNLKGKKSCHTAVGRTAGWVIPMGLIHNRTGTCNFDEYFSEGCAPGSPPNSRLCQLCQGSGGIPPEKCVASSHEKYFGYTGALRCLVEKGDVAFIQHSTVEENTGGKNKADWAKNLQMDDFELLCTDGRRANVMDYRECNLAEVPTHAVVVRPEKANKIRDLLERQEKRFGVNGSEKSKFMMFESQNKDLLFKDLTKCLFKVREGTTYKEFLGDKFYTVISSLKTCNPSDILQMCSFLEGK
- cells with Bcl10-YFP POLKADOTS: over 80%
